The source of these data is US20160272683A1 (Novo Nordisk, published 2016).

The target in test [1] is T1, human amylin 3(a) receptor (human calcitonin receptor co-expressed with RAMP-3) (human, UniProt P30988 25-474; O60896 24-148, limits assumed).
T1 sequence (looked up) 1: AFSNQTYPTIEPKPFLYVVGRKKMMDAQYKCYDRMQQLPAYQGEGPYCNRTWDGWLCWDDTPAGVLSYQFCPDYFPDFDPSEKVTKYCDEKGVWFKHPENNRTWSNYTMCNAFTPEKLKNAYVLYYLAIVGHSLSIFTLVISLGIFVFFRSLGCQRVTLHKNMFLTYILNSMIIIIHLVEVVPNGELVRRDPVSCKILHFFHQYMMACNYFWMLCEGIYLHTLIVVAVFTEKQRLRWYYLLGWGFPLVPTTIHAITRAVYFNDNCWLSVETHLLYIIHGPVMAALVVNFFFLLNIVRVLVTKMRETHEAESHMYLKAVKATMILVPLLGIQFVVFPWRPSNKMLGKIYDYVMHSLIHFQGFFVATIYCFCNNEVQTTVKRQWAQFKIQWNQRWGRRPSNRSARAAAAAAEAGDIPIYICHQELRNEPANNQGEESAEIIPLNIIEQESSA
T1 sequence (looked up) 2: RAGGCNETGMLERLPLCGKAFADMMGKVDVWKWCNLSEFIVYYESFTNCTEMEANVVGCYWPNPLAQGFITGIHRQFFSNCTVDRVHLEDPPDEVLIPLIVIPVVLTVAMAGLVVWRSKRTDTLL
Put plainly: cell-based or functional assay.

The target of test [2] is T2, human calcitonin receptor (human, UniProt P30988 25-474).
T2 sequence (looked up): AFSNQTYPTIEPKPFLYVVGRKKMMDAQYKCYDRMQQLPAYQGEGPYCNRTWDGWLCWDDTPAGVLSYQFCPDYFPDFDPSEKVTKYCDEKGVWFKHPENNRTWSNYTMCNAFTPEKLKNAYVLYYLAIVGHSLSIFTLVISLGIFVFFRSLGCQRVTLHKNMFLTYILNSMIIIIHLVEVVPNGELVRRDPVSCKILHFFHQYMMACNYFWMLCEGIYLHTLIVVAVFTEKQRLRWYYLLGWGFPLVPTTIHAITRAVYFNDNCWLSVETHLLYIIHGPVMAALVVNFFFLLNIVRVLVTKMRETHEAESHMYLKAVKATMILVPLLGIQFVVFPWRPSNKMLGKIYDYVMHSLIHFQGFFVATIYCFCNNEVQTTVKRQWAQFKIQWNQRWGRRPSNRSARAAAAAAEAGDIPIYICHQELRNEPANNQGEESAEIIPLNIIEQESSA
Put plainly: cell-based or functional assay.

Numbered stars: 1 amine (or outer) side, 2 acyl side, 3 side chain; on linkers, the order of the positions; unused ones are H or OH. * marks the point of attachment. C20 diacid = O=C(O)CCCCCCCCCCCCCCCCCCC(=O)*; γGlu = O=C(O)[C@H](CCC(=O)[*:2])N[*:1]; AEEA = NCCOCCOCC(=O)O

B1: [N-terminal(C20 diacid-gGlu), des1, 4G, 9V, 15Q, 21Q, 23Y, 30S, 31G, 32T, 33Y]mimylin (peptide)
peptide: {C20 diacid-γGlu}-ASGLSTAVLGRLSQELHELQTYPRTETGSGTY-NH2
SMILES: CC(C)C[C@H](NC(=O)CNC(=O)[C@H](CO)NC(=O)[C@H](C)NC(=O)CC[C@H](NC(=O)CCCCCCCCCCCCCCCCCCC(=O)O)C(=O)O)C(=O)N[C@@H](CO)C(=O)N[C@H](C(=O)N[C@@H](C)C(=O)N[C@H](C(=O)N[C@@H](CC(C)C)C(=O)NCC(=O)N[C@@H](CCCNC(=N)N)C(=O)N[C@@H](CC(C)C)C(=O)N[C@@H](CO)C(=O)N[C@@H](CCC(N)=O)C(=O)N[C@@H](CCC(=O)O)C(=O)N[C@@H](CC(C)C)C(=O)N[C@@H](Cc1c[nH]cn1)C(=O)N[C@@H](CCC(=O)O)C(=O)N[C@@H](CC(C)C)C(=O)N[C@@H](CCC(N)=O)C(=O)N[C@H](C(=O)N[C@@H](Cc1ccc(O)cc1)C(=O)N1CCC[C@H]1C(=O)N[C@@H](CCCNC(=N)N)C(=O)N[C@H](C(=O)N[C@@H](CCC(=O)O)C(=O)N[C@H](C(=O)NCC(=O)N[C@@H](CO)C(=O)NCC(=O)N[C@H](C(=O)N[C@@H](Cc1ccc(O)cc1)C(N)=O)[C@@H](C)O)[C@@H](C)O)[C@@H](C)O)[C@@H](C)O)C(C)C)[C@@H](C)O
On to B1, for which the “hAmylin-R funct. EC50 (pM)” value in test [1] is 57 pM. Besides, the “hCTR funct. EC50 (pM)” value in test [2] worked out at 65 pM.

B2: [N-terminal(C20 diacid-gGlu-2xOEG), des1, 4G, 9V, 15Q, 21Q, 23Y, 30S, 31G, 32T, 33Y]mimylin (peptide)
peptide: {C20 diacid-γGlu-AEEA-AEEA}-ASGLSTAVLGRLSQELHELQTYPRTETGSGTY-NH2
SMILES: CC(C)C[C@H](NC(=O)CNC(=O)[C@H](CO)NC(=O)[C@H](C)NC(=O)COCCOCCNC(=O)COCCOCCNC(=O)CC[C@H](NC(=O)CCCCCCCCCCCCCCCCCCC(=O)O)C(=O)O)C(=O)N[C@@H](CO)C(=O)N[C@H](C(=O)N[C@@H](C)C(=O)N[C@H](C(=O)N[C@@H](CC(C)C)C(=O)NCC(=O)N[C@@H](CCCNC(=N)N)C(=O)N[C@@H](CC(C)C)C(=O)N[C@@H](CO)C(=O)N[C@@H](CCC(N)=O)C(=O)N[C@@H](CCC(=O)O)C(=O)N[C@@H](CC(C)C)C(=O)N[C@@H](Cc1c[nH]cn1)C(=O)N[C@@H](CCC(=O)O)C(=O)N[C@@H](CC(C)C)C(=O)N[C@@H](CCC(N)=O)C(=O)N[C@H](C(=O)N[C@@H](Cc1ccc(O)cc1)C(=O)N1CCC[C@H]1C(=O)N[C@@H](CCCNC(=N)N)C(=O)N[C@H](C(=O)N[C@@H](CCC(=O)O)C(=O)N[C@H](C(=O)NCC(=O)N[C@@H](CO)C(=O)NCC(=O)N[C@H](C(=O)N[C@@H](Cc1ccc(O)cc1)C(N)=O)[C@@H](C)O)[C@@H](C)O)[C@@H](C)O)[C@@H](C)O)C(C)C)[C@@H](C)O
As for B2, the “hAmylin-R funct. EC50 (pM)” value in test [1] amounted to 89 pM. Besides, the “hCTR funct. EC50 (pM)” value in test [2] stood at 52 pM.

B3: [N-terminal(C20 diacid-gGlu), des1, 4G, 9V, 15Q, 21Q, 23Y, 30S, 31Q, 32T, 33Y]mimylin (peptide)
peptide: {C20 diacid-γGlu}-ASGLSTAVLGRLSQELHELQTYPRTETGSQTY-NH2
SMILES: CC(C)C[C@H](NC(=O)CNC(=O)[C@H](CO)NC(=O)[C@H](C)NC(=O)CC[C@H](NC(=O)CCCCCCCCCCCCCCCCCCC(=O)O)C(=O)O)C(=O)N[C@@H](CO)C(=O)N[C@H](C(=O)N[C@@H](C)C(=O)N[C@H](C(=O)N[C@@H](CC(C)C)C(=O)NCC(=O)N[C@@H](CCCNC(=N)N)C(=O)N[C@@H](CC(C)C)C(=O)N[C@@H](CO)C(=O)N[C@@H](CCC(N)=O)C(=O)N[C@@H](CCC(=O)O)C(=O)N[C@@H](CC(C)C)C(=O)N[C@@H](Cc1c[nH]cn1)C(=O)N[C@@H](CCC(=O)O)C(=O)N[C@@H](CC(C)C)C(=O)N[C@@H](CCC(N)=O)C(=O)N[C@H](C(=O)N[C@@H](Cc1ccc(O)cc1)C(=O)N1CCC[C@H]1C(=O)N[C@@H](CCCNC(=N)N)C(=O)N[C@H](C(=O)N[C@@H](CCC(=O)O)C(=O)N[C@H](C(=O)NCC(=O)N[C@@H](CO)C(=O)N[C@@H](CCC(N)=O)C(=O)N[C@H](C(=O)N[C@@H](Cc1ccc(O)cc1)C(N)=O)[C@@H](C)O)[C@@H](C)O)[C@@H](C)O)[C@@H](C)O)C(C)C)[C@@H](C)O
B3: in test [1], the “hAmylin-R funct. EC50 (pM)” value amounted to 72 pM. Moreover, the “hCTR funct. EC50 (pM)” value in test [2] worked out at 49 pM.
